Measurements taken from patent publication US20250289893A1 (OXFORD UNIVERSITY INNOVATION, published 2025).
Positions count from the first letter of the chain named.

B1: 77A (VR11851) (antibody, V domains shown)
VH: QSVEESGGRLVTPGTPLTLTCTVSGFSLSSYAMSWVRQAPGKGLEWIGIISSSGTTYYASWAKGRFTISKTSTTVDLKITSPTTEDTATYFCARVDYYSSGWGGLWGPGTLVTVSS
VL: AVEMTQTPASMSAAVGGTVTIKCQASEDIYSNLAWYQQKPGQPPKLLIYGASTLASGVPSRFKGSGSGTEYTLTISGVQCDDAATYYCQCTYDTSSYGNTFGGGTEMVVE
notes: also called OX77a; antibody 77a
B2: 110 (VR12112) (antibody, V domains shown)
VH: QSVEESGGRLVTPGTPLTLTCTVSGFSLSSYAMIWVRQAPGKGLEWIGIINSSDNTHYATWAKGRFTISKTSTTVDLKITSPTTEDTATYFCARDPYDYGYGWYFDLWGPGTLVTVSS
VL: AQVLTQTPSPVSAAVGGTVTINCQASQSVFNNKNLAWYQQKPGQPPKLLIYKASTLASGVSSRFKGSGSGTQFALTISGVQCDDAATYYCQGEFSCSSTDCVTFGGGTEVVVK
notes: also called OX110; antibody 110
B3: 111 (VR12113) (antibody, V domains shown)
VH: QSVEESGGRLVTPGTPLTLTCTASGFSLSTYAMSWVRQAPGKGLEWIGIISSSGSTYYASWAKGRFTISKTSTTVDLKITSPTTEDTATYFCARETWYWLDLWGQGTLVTVSS
VL: B1 VL with M11V, K22N, T91A, T94S, N99T, T100P, M107V, E110K
notes: also called OX111
B4: 116 (VR12117) (antibody, V domains shown)
VH: QSVEESGGRLVTPGTPLTLTCTVSGFSLSNYAMSWVRQAPGKGLEWIGIIYTTGFTYYASWVKGRFTISKTSTTVDLKITSPTTEDTATYFCARGLATYVSPPTRLDLWGQGTLVTVSS
VL: AQVLTQTPSPVSAAVGGTVTINCQASQSIYNSKNLAWYQQKPGQPPKLLIYSASTLASGVPSRFKGSGSGTQFTLTISDLECDDAATYYCQGEFSCSSVDCATFGGGTEVVVK
notes: also called OX116

The binders below were run against Chinese variant CD1a protein (human) (UniProt P06126) (assay: ELISA, 1 µg/ml antibody).
Sequence of Chinese variant CD1a protein (human) (P06126 18-295, change not shown): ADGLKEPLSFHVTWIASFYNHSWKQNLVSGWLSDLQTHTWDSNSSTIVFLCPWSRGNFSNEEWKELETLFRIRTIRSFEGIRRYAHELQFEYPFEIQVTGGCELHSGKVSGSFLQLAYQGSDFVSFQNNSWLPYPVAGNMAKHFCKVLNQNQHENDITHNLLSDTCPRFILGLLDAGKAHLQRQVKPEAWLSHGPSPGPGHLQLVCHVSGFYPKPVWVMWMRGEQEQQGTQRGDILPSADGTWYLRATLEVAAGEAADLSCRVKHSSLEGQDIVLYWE

Row | Binder | Optical Density (OD)
1 | B1 | 0.78
2 | B2 | 1.79
3 | B3 | 1.44
4 | B4 | 1.51

What follows are binders tested against Chinese variant CD1a protein (human) (UniProt P06126) (assay: ELISA, 10 µg/ml antibody).

Row | Binder | Optical Density (OD)
5 | B1 | 0.99
6 | B2 | 1.75
7 | B3 | 1.41
8 | B4 | 1.51

Each binder was assayed against Chinese variant CD1a protein (human) (UniProt P06126) (assay: ELISA, 0.01 µg/ml antibody).

Row | Binder | Optical Density (OD)
9 | B1 | 0.79
10 | B2 | 1.4
11 | B3 | 1.33
12 | B4 | 1.47

Target: T1, Cynomolgus monkey CD1a protein (Cynomolgus monkey)
T1 chain: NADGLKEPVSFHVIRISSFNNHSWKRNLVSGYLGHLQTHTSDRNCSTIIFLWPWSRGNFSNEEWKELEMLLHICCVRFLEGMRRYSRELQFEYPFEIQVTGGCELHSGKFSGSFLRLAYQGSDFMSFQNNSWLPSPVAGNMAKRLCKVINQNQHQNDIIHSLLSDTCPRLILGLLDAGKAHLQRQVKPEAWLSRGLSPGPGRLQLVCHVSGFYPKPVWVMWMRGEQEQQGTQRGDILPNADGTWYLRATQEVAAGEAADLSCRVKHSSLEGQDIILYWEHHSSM
Assay: ELISA, 1 µg/ml antibody

Row | Binder | Optical Density (OD)
13 | B1 | 0.43
14 | B2 | 0.94
15 | B3 | 0.69
16 | B4 | 0.14

These binders were tested against T2, human CD1a protein (pool B) (human, UniProt P06126 18-295, limits assumed) (assay: ELISA, 3.16 µg/ml antibody).
T2 construct: Recombinant protein of the ELISA (coated) and the Biacore T200 titration; whole entry named; also called human CD1a pool B; full length CD1a
T2 sequence (P06126 18-295 limits assumed): as the sequence (P06126 18-295, change not shown) above
Procedure: (§1) CD1a-specific antibodies were identified by ELISA. […] 20 μl/well of peroxidase-conjugated goat anti-species IgG Fc-specific F(ab′)2 fragment (Jackson ImmunoResearch), diluted 1:5000 in block buffer was added and incubated at room temperature for 1 hour, followed by washing with wash buffer.
The antibodies were titrated through a dilution series and compared to a control rabbit IgG antibody.

Row | Binder | Optical Density (OD)
17 | B1 | 1.33
18 | B2 | 1.27
19 | B3 | 1.13
20 | B4 | 1.15

These binders were tested against chimeric CD1a pool B protein [human CD1a lipid binding domain, mouse CD1d Ig domain] (human; mouse, UniProt P06126 18-201; P11609 205-297, limits assumed) (assay: ELISA, 0.0316 µg/ml antibody).
Sequence of chimeric CD1a pool B protein [human CD1a lipid binding domain, mouse CD1d Ig domain] (P06126 other isoform, or with tags, fused parts or gaps mutant limits assumed): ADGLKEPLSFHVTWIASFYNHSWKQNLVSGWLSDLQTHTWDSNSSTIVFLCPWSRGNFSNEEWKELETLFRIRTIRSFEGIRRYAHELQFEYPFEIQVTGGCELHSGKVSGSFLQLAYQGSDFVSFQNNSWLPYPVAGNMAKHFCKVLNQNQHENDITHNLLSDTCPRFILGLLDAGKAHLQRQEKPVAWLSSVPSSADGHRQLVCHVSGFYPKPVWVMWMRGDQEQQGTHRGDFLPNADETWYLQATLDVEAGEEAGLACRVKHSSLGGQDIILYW
Procedure: as §1
The antibodies were titrated through a dilution series and compared to a control rabbit IgG antibody. […] Data shown for purified antibodies.

Row | Binder | Optical Density (OD)
21 | B1 | 1.09
22 | B2 | 0.73
23 | B3 | 1.19
24 | B4 | 1.13

These binders were tested against T3, human CD1a expressed on cells (human, UniProt P06126 17-327; P61769 21-119) (assay: flow cytometry, C1R cells, 3.16 µg/ml antibody).
T3 construct: also called HEK - CD1a; C1R - CD1a
Procedure: (§2) Binding to proteins expressed on HEK, C1R and MOLT4 cell lines was assessed. […] The C1R-CD1a, C1R-empty vector and MOLT4 cell lines were washed in 1×PBS on the day required. All cell lines were counted and resuspended in 1×PBS and then stained for 30 minutes at 37° C. using the DiI or DiO cellular stains (Invitrogen). Cells were washed with flow cytometry buffer (1% bovine serum albumin, 2 mM EDTA and 0.1% sodium azide in PBS) before mixing 2 DiI-stained and DiO-stained populations together. The cells (20 μl/well) were then added to dilutions of antibody sample (B cell culture supernatant, TAP supernatant, clone supernatant, purified antibody solution) (20 μl/well) and incubated for 1 hour at 4° C. in a flow cytometry assay plate, before being washed with flow cytometry buffer. 10 μl/well of Alexafluor647-conjugated goat anti-species IgG Fc-specific F(ab′)2 fragment (Jackson ImmunoResearch), diluted 1:2500 in flow cytometry buffer, was added and incubated at 4° C. for 30 minutes, followed by washing with wash buffer. The fluorescence intensity was then measured on an iQue screener PLUS.
(§3) Binding was quantified as fold change in fluorescence intensity geomean over background assessed by flow cytometry.

Row | Binder | Fluorescence Intensity Geomean (normalized to background) [fold over background]
25 | B1 | 4.2
26 | B2 | 15.2
27 | B3 | 15.6
28 | B4 | 24

The binders below were run against T3, human CD1a expressed on cells (assay: flow cytometry, MOLT4 cells, 0.1 µg/ml antibody).
Procedure: (§4) CD1a-specific antibodies were identified by flow cytometry. Binding to proteins expressed on HEK, C1R and MOLT4 cell lines was assessed. […] The C1R-CD1a, C1R-empty vector and MOLT4 cell lines were washed in 1×PBS on the day required. All cell lines were counted and resuspended in 1×PBS and then stained for 30 minutes at 37° C. using the DiI or DiO cellular stains (Invitrogen). Cells were washed with flow cytometry buffer (1% bovine serum albumin, 2 mM EDTA and 0.1% sodium azide in PBS) before mixing 2 DiI-stained and DiO-stained populations together. The cells (20 μl/well) were then added to dilutions of antibody sample (B cell culture supernatant, TAP supernatant, clone supernatant, purified antibody solution) (20 μl/well) and incubated for 1 hour at 4° C. in a flow cytometry assay plate, before being washed with flow cytometry buffer. 10 μl/well of Alexafluor647-conjugated goat anti-species IgG Fc-specific F(ab′)2 fragment (Jackson ImmunoResearch), diluted 1:2500 in flow cytometry buffer, was added and incubated at 4° C. for 30 minutes, followed by washing with wash buffer. The fluorescence intensity was then measured on an iQue screener PLUS.
as §3

Row | Binder | Fluorescence Intensity Geomean (normalized to background) [fold over background]
29 | B1 | 12.4
30 | B2 | 16.8
31 | B3 | 20.6
32 | B4 | 22.6

These binders were tested against Cynomolgus monkey CD1a expressed on HEK-293 cells (Cynomolgus monkey, UniProt A0A2K5VQ68 17-326) (assay: flow cytometry, HEK-293 cells, 1 µg/ml antibody).
Sequence of Cynomolgus monkey CD1a expressed on HEK-293 cells (A0A2K5VQ68 entry or part of it): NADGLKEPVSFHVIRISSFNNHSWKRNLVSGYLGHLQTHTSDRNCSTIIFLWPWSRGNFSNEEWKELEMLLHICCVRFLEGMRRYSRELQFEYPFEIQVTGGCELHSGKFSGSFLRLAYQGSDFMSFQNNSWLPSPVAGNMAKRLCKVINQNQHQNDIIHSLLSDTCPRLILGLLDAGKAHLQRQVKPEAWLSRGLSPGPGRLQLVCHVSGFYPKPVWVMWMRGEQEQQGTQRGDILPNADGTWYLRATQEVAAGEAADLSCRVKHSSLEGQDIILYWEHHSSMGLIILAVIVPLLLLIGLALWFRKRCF
Procedure: as §2, §3

Row | Binder | Fluorescence Intensity Geomean (normalized to background) [fold over background]
33 | B1 | 10.6
34 | B3 | 12.9
35 | B4 | 0.8

What follows are binders tested against T3, human CD1a expressed on cells (assay: flow cytometry, HEK-293 cells, 10 µg/ml antibody).
Procedure: as §2
(§5) HEK-293 cells were transiently transfected with human CD1a, CD1b, CD1c or CD1d and co-transfected with human β2M.

Row | Binder | Fluorescence Intensity Geomean (normalized to background) [fold over background]
36 | B1 | 13.7
37 | B2 | 15.7
38 | B3 | 11.1
39 | B4 | 12.6

The binders below were run against T4, human CD1b expressed on HEK-293 cells (human, UniProt P29016 18-333; P61769 21-119) (assay: flow cytometry, HEK-293 cells, 10 µg/ml antibody).
T4 construct: also called HEK - CD1b
Procedure: as §2, §5

Row | Binder | Fluorescence Intensity Geomean (normalized to background) [fold over background]
40 | B1 | 1.1
41 | B2 | 1.1
42 | B3 | 1.1
43 | B4 | 1

These binders were tested against T5, human CD1c expressed on HEK-293 cells (human, UniProt P29017 18-333; P61769 21-119) (assay: flow cytometry, HEK-293 cells, 10 µg/ml antibody).
T5 construct: also called HEK - CD1c
Procedure: as §2, §5

Row | Binder | Fluorescence Intensity Geomean (normalized to background) [fold over background]
44 | B1 | 0.9
45 | B2 | 1
46 | B3 | 1
47 | B4 | 1.1

Each binder was assayed against T6, human CD1d expressed on HEK-293 cells (human, UniProt P15813 20-335; P61769 21-119) (assay: flow cytometry, HEK-293 cells, 10 µg/ml antibody).
T6 construct: also called HEK - CD1d
Procedure: as §2, §5

Row | Binder | Fluorescence Intensity Geomean (normalized to background) [fold over background]
48 | B1 | 1
49 | B2 | 1
50 | B3 | 1.1
51 | B4 | 1.1

What follows are binders tested against T3, human CD1a expressed on cells (assay: flow cytometry, C1R cells, 0.0316 µg/ml antibody).
Procedure: as §2, §3

Row | Binder | Fluorescence Intensity Geomean (normalized to background) [fold over background]
52 | B1 | 17
53 | B2 | 17.1
54 | B3 | 26
55 | B4 | 24.1

Each binder was assayed against T3, human CD1a expressed on cells (assay: flow cytometry, MOLT4 cells, 3.16 µg/ml antibody).
Procedure: as §4, §3

Row | Binder | Fluorescence Intensity Geomean (normalized to background) [fold over background]
56 | B1 | 7.4
57 | B2 | 22.6
58 | B3 | 18.9
59 | B4 | 23.9

What follows are binders tested against T3, human CD1a expressed on cells (assay: flow cytometry, MOLT4 cells, 0.316 µg/ml antibody).
Procedure: as §4, §3

Row | Binder | Fluorescence Intensity Geomean (normalized to background) [fold over background]
60 | B1 | 15.2
61 | B2 | 27.1
62 | B3 | 27.3
63 | B4 | 29.6

These binders were tested against T3, human CD1a expressed on cells (assay: flow cytometry, HEK-293 cells, 3.16 µg/ml antibody).
Procedure: as §2, §5

Row | Binder | Fluorescence Intensity Geomean (normalized to background) [fold over background]
64 | B1 | 23.3
65 | B2 | 31.5
66 | B3 | 24.9
67 | B4 | 21.9

The binders below were run against T4, human CD1b expressed on HEK-293 cells (assay: flow cytometry, HEK-293 cells, 3.16 µg/ml antibody).
Procedure: as §2, §5

Row | Binder | Fluorescence Intensity Geomean (normalized to background) [fold over background]
68 | B1 | 0.9
69 | B2 | 1.1
70 | B3 | 1.1
71 | B4 | 1

The binders below were run against T5, human CD1c expressed on HEK-293 cells (assay: flow cytometry, HEK-293 cells, 3.16 µg/ml antibody).
Procedure: as §2, §5

Row | Binder | Fluorescence Intensity Geomean (normalized to background) [fold over background]
72 | B1 | 0.9
73 | B2 | 1.1
74 | B3 | 1.1
75 | B4 | 1.1

What follows are binders tested against T6, human CD1d expressed on HEK-293 cells (assay: flow cytometry, HEK-293 cells, 3.16 µg/ml antibody).
Procedure: as §2, §5

Row | Binder | Fluorescence Intensity Geomean (normalized to background) [fold over background]
76 | B1 | 0.9
77 | B2 | 1
78 | B3 | 1.1
79 | B4 | 1.1

The binders below were run against T3, human CD1a expressed on cells (assay: flow cytometry, HEK-293 cells, 31.6 µg/ml antibody).
Procedure: as §2, §5

Row | Binder | Fluorescence Intensity Geomean (normalized to background) [fold over background]
80 | B1 | 8.2
81 | B2 | 10.9
82 | B3 | 6.3
83 | B4 | 5.6

Each binder was assayed against T4, human CD1b expressed on HEK-293 cells (assay: flow cytometry, HEK-293 cells, 31.6 µg/ml antibody).
Procedure: as §2, §5

Row | Binder | Fluorescence Intensity Geomean (normalized to background) [fold over background]
84 | B1 | 1
85 | B2 | 1.1
86 | B3 | 1
87 | B4 | 1

The binders below were run against T5, human CD1c expressed on HEK-293 cells (assay: flow cytometry, HEK-293 cells, 31.6 µg/ml antibody).
Procedure: as §2, §5

Row | Binder | Fluorescence Intensity Geomean (normalized to background) [fold over background]
88 | B1 | 0.9
89 | B2 | 1
90 | B3 | 1
91 | B4 | 1

These binders were tested against T6, human CD1d expressed on HEK-293 cells (assay: flow cytometry, HEK-293 cells, 31.6 µg/ml antibody).
Procedure: as §2, §5

Row | Binder | Fluorescence Intensity Geomean (normalized to background) [fold over background]
92 | B1 | 1
93 | B2 | 1.1
94 | B3 | 1
95 | B4 | 1

These binders were tested against T6, human CD1d expressed on HEK-293 cells (assay: flow cytometry, HEK-293 cells, 0.316 µg/ml antibody).
Procedure: as §2, §5

Row | Binder | Fluorescence Intensity Geomean (normalized to background) [fold over background]
96 | B1 | 1
97 | B2 | 1
98 | B3 | 0.9
99 | B4 | 1
